Sequences and labels used below:
T1: synthetic amyloid fibrils composed of human islet amyloid polypeptide (human, UniProt P10997 34-70)
T1 peptide (looked up): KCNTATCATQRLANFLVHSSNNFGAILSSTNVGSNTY

Square brackets hold non-standard residues; d marks the D form. Ends that are not written are not given here.

The target in one assay is synthetic amyloid fibrils composed of Aβ(1-40) peptide. As to the kind of experiment: pull-down.
As for VYKVKTKVKTKVKTKVKT (also: radioiodinated with iodine-125, site not given here) [125I-labeled peptide p5(sheet)], the ratio of 1 M/0.15 M pulldown data (bound peptide in 1 M NaCl over that in PBS) was found to be 0.21.

Turning to GGGYSKGGKGGGKGGKGGGKGGKGGGKGGKG (also: radioiodinated with iodine-125, site not given here) [125I-labeled peptide p5(coil)], the ratio of 1 M/0.15 M pulldown data (bound peptide in 1 M NaCl over that in PBS) was 0.07.

With GGGYSKAQKAPAKQAKQPQKAQKAPAKQAKQ (also: radioiodinated with iodine-125, site not given here) [125I-labeled peptide p5(Pro3)], the ratio of 1 M/0.15 M pulldown data (bound peptide in 1 M NaCl over that in PBS) is 0.01.

A further assay concerns the target synthetic amyloid fibrils composed of recombinant Vλ6 protein Wil. The assay can be described thus: pull-down.
Consider VYKVKTKVKTKVKTKVKT (also: radioiodinated with iodine-125, site not given here) [125I-labeled peptide p5(sheet)], for which the ratio of 1 M/0.15 M pulldown data (bound peptide in 1 M NaCl over that in PBS) came out at 0.35.

For GGGYSKGGKGGGKGGKGGGKGGKGGGKGGKG (also: radioiodinated with iodine-125, site not given here) [125I-labeled peptide p5(coil)], the ratio of 1 M/0.15 M pulldown data (bound peptide in 1 M NaCl over that in PBS) came out at 0.02.

For GGGYSKAQKAQAKQAKQAQKAQKAQAKQAKQ [peptide p5], the percent inhibition of the binding of m6 (125I-p5) by a 1000-fold molar excess worked out at 95% and the percent inhibition of the binding of m7 (125I-p5(D)) by a 1000-fold molar excess turned out to be 80%.

On to GGGYSKAQKAPAKQAKQPQKAQKAPAKQAKQ (also: radioiodinated with iodine-125, site not given here) [125I-labeled peptide p5(Pro3)], for which the ratio of 1 M/0.15 M pulldown data (bound peptide in 1 M NaCl over that in PBS) worked out at 0.01.

The next assay deals with T1, synthetic amyloid fibrils composed of …. As to the kind of experiment: pull-down.
With VYKVKTKVKTKVKTKVKT (also: radioiodinated with iodine-125, site not given here) [125I-labeled peptide p5(sheet)], the “ratio of 1 M/0.15 M pulldown data (bound peptide in 1 M NaCl over that in PBS)” value was found to be 0.2.

As for GGGYSKGGKGGGKGGKGGGKGGKGGGKGGKG (also: radioiodinated with iodine-125, site not given here) [125I-labeled peptide p5(coil)], the “ratio of 1 M/0.15 M pulldown data (bound peptide in 1 M NaCl over that in PBS)” value was found to be 0.12.

With GGGYSKAQKAPAKQAKQPQKAQKAPAKQAKQ (also: radioiodinated with iodine-125, site not given here) [125I-labeled peptide p5(Pro3)], the “ratio of 1 M/0.15 M pulldown data (bound peptide in 1 M NaCl over that in PBS)” value is 0.07.

Another assay has as its target synthetic amyloid fibrils composed of recombinant Vλ6 protein Wil. As to the kind of experiment: SPR. (Surface plasmon resonance follows binding to a sensor surface in real time, without labels.)
Regarding GGG[dY][dS][dK][dA][dQ][dK][dA][dQ][dA][dK][dQ][dA][dK][dQ][dA][dQ][dK][dA][dQ][dK][dA][dQ][dA][dK][dQ][dA][dK][dQ] [peptide p5(D)], the Kd was determined as 5.4 nM.

GGGYSKGGKGGGKGGKGGGKGGKGGGKGGKG [peptide p5(coil)]: the Kd amounted to 18 nM.

As for VYKVKTKVKTKVKTKVKT [peptide p5(sheet)], the equilibrium dissociation constant (Kd) stood at 10 nM.

Regarding GGGYSKAQKAPAKQAKQPQKAQKAPAKQAKQ [peptide p5(Pro3)], the dissociation constant Kd is 25 nM.

With GGGYSKAQKAQAKQAKQAQKAQKAQAKQAKQ [peptide p5], the Kd came to 3.7 nM.

The next assay has the same target. The assay can be described thus: SPR. This is another data set of the same source.
Take GGG[dY][dS][dK][dA][dQ][dK][dA][dQ][dA][dK][dQ][dA][dK][dQ][dA][dQ][dK][dA][dQ][dK][dA][dQ][dA][dK][dQ][dA][dK][dQ] [peptide p5(D)]: the Kd came to 22 nM; the ka1 (two-state model, first step) turned out to be 550000 M⁻¹ s⁻¹; the ka2 (two-state model, second step) amounted to 0.0074 s⁻¹; the kd1 (two-state model, first step) was 0.052 s⁻¹. Also, the kd2 (two-state model, second step) was 0.0017 s⁻¹.

On to GGGYSKGGKGGGKGGKGGGKGGKGGGKGGKG [peptide p5(coil)], for which the Kd came to 34 nM; the ka1 (two-state model, first step) came to 75000 M⁻¹ s⁻¹; the ka2 (two-state model, second step) was 7.9e-06 s⁻¹; the kd1 (two-state model, first step) is 0.001 s⁻¹. Moreover, the kd2 (two-state model, second step) worked out at 1.5e-05 s⁻¹.

Regarding VYKVKTKVKTKVKTKVKT [peptide p5(sheet)], the dissociation constant Kd came to 25 nM; the ka1 (two-state model, first step) was 420000 M⁻¹ s⁻¹; the ka2 (two-state model, second step) came out at 0.007 s⁻¹; the kd1 (two-state model, first step) stood at 0.026 s⁻¹. For the same molecule, the kd2 (two-state model, second step) was 0.0028 s⁻¹.

As for GGGYSKAQKAPAKQAKQPQKAQKAPAKQAKQ [peptide p5(Pro3)], the dissociation constant Kd was 71 nM; the ka1 (two-state model, first step) came out at 120000 M⁻¹ s⁻¹; the ka2 (two-state model, second step) was 0.0122 s⁻¹; the kd1 (two-state model, first step) was determined as 0.045 s⁻¹. Further, the kd2 (two-state model, second step) was found to be 0.0024 s⁻¹.

Turning to GGGYSKAQKAQAKQAKQAQKAQKAQAKQAKQ [peptide p5], the dissociation constant (Kd) came to 15 nM; the ka1 (two-state model, first step) stood at 480000 M⁻¹ s⁻¹; the ka2 (two-state model, second step) amounted to 0.0315 s⁻¹; the kd1 (two-state model, first step) is 0.203 s⁻¹. Further, the kd2 (two-state model, second step) is 0.0011 s⁻¹.

The term Kd denotes the free concentration of one partner at which half of the binding sites on the other are occupied at equilibrium, for simple one-to-one binding.

These data come from paper PMC5363963 (Biochemistry and Biophysics Reports, 2016).
